A word on the Kd: it is a measure of binding affinity in units of concentration. A high value points to a looser complex.

Numbering of substitutions follows the chain as printed.

For 1 molecule, Kd results are on record in patent publication US20220332804A1 (CSL INNOVATION, published 2022).

What all share (experiment): SPR, antibody captured, C2 as analyte;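 also: biacore at 37 °C, anti-C2 mAbs held by immobilised goat anti-human IgG, C2 alanine or serine mutants injected, double-referenced sensorgrams fitted to a 1:1 kinetic or steady-state model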
One test concerns the target T1, human C2 K274A (human, UniProt P06681 21-752).
T1 sequence: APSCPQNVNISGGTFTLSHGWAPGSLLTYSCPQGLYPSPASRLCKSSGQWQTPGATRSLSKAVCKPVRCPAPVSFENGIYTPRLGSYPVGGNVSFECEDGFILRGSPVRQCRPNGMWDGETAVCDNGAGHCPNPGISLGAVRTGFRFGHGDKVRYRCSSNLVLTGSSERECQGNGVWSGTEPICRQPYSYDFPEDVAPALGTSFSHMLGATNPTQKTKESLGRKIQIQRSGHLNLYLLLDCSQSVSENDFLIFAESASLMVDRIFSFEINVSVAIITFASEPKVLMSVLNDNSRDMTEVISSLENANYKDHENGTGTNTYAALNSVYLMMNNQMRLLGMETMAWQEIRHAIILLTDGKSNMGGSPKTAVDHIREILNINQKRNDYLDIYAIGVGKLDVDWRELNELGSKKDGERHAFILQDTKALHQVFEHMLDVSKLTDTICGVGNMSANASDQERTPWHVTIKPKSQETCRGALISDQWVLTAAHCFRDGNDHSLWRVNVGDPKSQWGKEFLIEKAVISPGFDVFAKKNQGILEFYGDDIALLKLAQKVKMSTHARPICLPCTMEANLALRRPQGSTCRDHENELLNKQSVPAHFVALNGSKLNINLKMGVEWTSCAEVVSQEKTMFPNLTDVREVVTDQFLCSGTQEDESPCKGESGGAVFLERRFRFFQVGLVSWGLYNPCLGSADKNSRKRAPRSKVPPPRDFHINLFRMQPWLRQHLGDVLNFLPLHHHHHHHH

For another test, the target named is T2, human C2 D269A (human, UniProt P06681 21-752).
T2 sequence: T1 sequence with D249A, A254K

Another test deals with T3, human C2 H331A (human, UniProt P06681 21-752).
T3 sequence: T1 sequence with A254K, H311A

Another test concerns the target T4, human C2 D417A (human, UniProt P06681 21-752).
T4 sequence: T1 sequence with A254K, D397A

B1: RF16-242 (antibody, human IgG4 S228P, lambda, V domains shown)
VH: EVQLLQSGAEVKKPGESLKISCKGSGYSFTSYWIGWVRQMPGKGLEWMGIIYPGDSDTRYSPSFQGQVTISADKSISTAYLQWSSLKASDTAMYYCARRGHYGDYFDYWGQGTLVTVSS
VL: SYELTQPPSVSVSPGQTARITCSGDALPKKYAYWYHQKSGQAPVLVIYEDRRRPSEIPERFSGSSSGTMATLTITGAQVEDEGVYFCYSRDRAGNQRVFGGGTQLTVLG
notes: pH-dependent anti-C2 antibody from a phage display library
Turning to B1, the Kd with human C2 K274A turned out to be 86.9 nM; with human C2 D269A, 12.9 nM; with human C2 H331A it was 191 nM; with human C2 D417A, 23 nM.
